Reference: patent US20240294635A1

Columns and labels:
[1] = target: CD47 on the red cell surface (Homo sapiens (Human)) (UniProt Q08722); assay: flow cytometry on fixed red cells, antibody 10 µg/mL
[2] = target: CD47 on the red cell surface (Homo sapiens (Human)) (UniProt Q08722); assay: flow cytometry on fixed red cells, antibody 1 µg/mL

Question: With IgG4 (antibody) as the substance, how does the MFI [1] read?
Answer: 484 MFI

Question: And the MFI [2]?
Answer: 449 MFI
